Measurements taken from patent US20250270343A1 (Alector, published 2025).

T1: mouse GPNMB endogenously expressed on B16F10 cells (mouse, UniProt Q99P91 23-574)
T1 construct: whole, on cells; also called moGPNMB
T1 sequence (looked up): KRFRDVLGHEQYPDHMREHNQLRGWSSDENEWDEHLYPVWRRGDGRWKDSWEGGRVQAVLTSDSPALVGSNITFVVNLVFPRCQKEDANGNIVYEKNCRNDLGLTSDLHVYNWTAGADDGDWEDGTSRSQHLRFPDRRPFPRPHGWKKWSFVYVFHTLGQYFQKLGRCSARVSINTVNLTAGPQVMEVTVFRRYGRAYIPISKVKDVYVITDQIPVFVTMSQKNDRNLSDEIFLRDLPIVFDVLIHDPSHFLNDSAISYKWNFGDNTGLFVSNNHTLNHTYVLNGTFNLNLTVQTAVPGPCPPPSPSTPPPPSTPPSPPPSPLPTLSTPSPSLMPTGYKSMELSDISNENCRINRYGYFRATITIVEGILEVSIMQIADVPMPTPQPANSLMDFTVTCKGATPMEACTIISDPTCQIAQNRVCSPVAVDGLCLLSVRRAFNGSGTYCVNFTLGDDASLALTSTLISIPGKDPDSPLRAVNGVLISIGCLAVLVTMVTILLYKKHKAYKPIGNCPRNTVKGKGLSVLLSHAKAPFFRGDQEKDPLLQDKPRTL


These binders were tested against T1, mouse GPNMB endogenously expressed on … (assay: FACS titration, B16F10 cells).
Procedure: Cell-based binding measurements were also performed to measure the apparent affinities of anti-GPNMB antibodies of the present disclosure to cell-surface expressed GPNMB. Serial dilutions of the monoclonal anti-GPNMB antibodies were added to 100,000 Freestyle293-huGPNMB+ or B16F10 cells and allowed to achieve binding equilibrium at 4° C. After addition of fluorescently labeled secondary antibody and brief washing steps, MFI values as a function of titrated antibody concentration was recorded via FACS analysis. Curves were fit using nonlinear regression analysis with Graphpad Prism 6 software.

| EC50 [nM] | Binder |
| --- | --- |
| 5.38 | anti-GPNMB antibody GPN-38 (antibody, human IgG1, V domains shown, chimeric) VH: QVQLQQPGAELVRPGTSVRLSCKASGYTFTSYWIHWVKQRPGRGLEWIGVIDPSDSYTNYNQQFNVKATLTVDTSSSAAYMQLSSLTSEDSAVYYCARGLITAVNWYFDVWGTGTTVTVSS VL: DIQMTQSPASLSTSVGEIVTITCRASENIYSYLTWYQQKQGKSPQLLVYNAKTLAEGVPSRFSGSGSGTQFSLKINSLQPEDFGTYYCQHHYGTPLTFGSGTKLEIK |
| 36.2 | anti-GPNMB antibody GPN-43 (antibody, human IgG1, V domains shown, chimeric) VH: EVQLQQSGPELVKPGASVKISCKASGYTFTDYYMNWVRQSHGKSLEWIGDINPYHGGSTYNQKIKVKATLTVDKSSSTAYMELRSLTSEDSAVYYCARNWPYFDYWGQGTTLTVSS VL: DIQMTQSPASLSASVGETVTITCRASENIYSFLVWYQQKQGKSPQLLVYNAKTLAEGVPSRFSGSGSGTQFSLKISSLQPEDFGSYYCQHHFGTPPYTFGGGTKLEIK |
| 2.62 | anti-GPNMB antibody GPN-41 (antibody, human IgG1, V domains shown, chimeric) VH: QLQLQQSGTEVVKPGASVKIPCKASGYAFSSYWMNWVKQRPGKGLEWIGQIYPGDGDTNDNGKFEGKATLTVDKSSNTAYIQLSSLTSEDSAVYFCARSPLHLRGSMDYWGQGTSVTVSS VL: SIVMTQTPKFLLVSAGDRVTITCKASQSVSNDVAWFQQKPGQSPELLIYSASNRYTGVPDRFTASGYGTDFTFTISAVQAEDLAVYFCQQNYYSPFTFGGGTRLEIK |
| 3.23 | anti-GPNMB antibody GPN-65 (antibody, human IgG1, V domains shown, chimeric) VH: QLQLQQSGTEVVKPGASVKIPCKASGYAFSSYWMNWVKQRPGKGLEWIGQIYPGDGDTNDNGKFEGKATLTVDKSSNTAYIQLSSLTSEDSAVYFCARSPLHLRGSMDYWGQGTSVTVSS VL: SIVMTQTPKFLLVSAGDRVTITCKASQSVSNDVAWFQQKPGQSPELLIYSASNRYTGVPDRFTGSGYGTDFTFTISTVQAEDLAVYFCQQNYYSPFTFGGGTRLEIK |
| 76.5 | anti-GPNMB antibody GPN-42 (antibody, human IgG1, V domains shown, chimeric) VH: DVKLVESGEDLVKPGGSLKLSCAASGFTFSSYAMSWVRQTPEKRLEWVAYISSGGDYIYYADTVKGRFTISRDNARNTLYLQMSSLKSEDTAMYYCTRDRYYDYDVRDYYTMDYWGQGTSVTVSS VL: DVMMTQTPLSLPVSLGDQASISCRSSQSLVHSNGNTYLHWFLQKPGQSPKLLIFRVSNRFSGVPDRFSGRGSGTDFTLKISRVEAEDLGVYFCSQTTHVPRTFGGGTTLEIK |
